test: soluble fraction after stress (log2 fold change); higher = more stays soluble; pooled small domains, quantitative proteomics; conditions: stress: pH 4
Method in brief: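 Aggregation propensity here comes from the fold change in the soluble amount of each small protein domain after acid stress, measured in pooled custom libraries by high-throughput quantitative proteomics. The acid stress was pH 4. On the log2 scale, higher values mean more of the domain stayed soluble.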

Going from “HMTPQEQWNNAYLLAKDYYDANGNLDIDEKYKTKDGFELGSWLTTQRNVYKRGKLSPEKTKKLEEIGISF” to “HMTPQGALDYSRNAKYLRDQVTAINYLKQARLSLNTTDANYRQTLEQINQAIAKHNQALQQAGVQSQQLAT”, the “soluble fraction (log2)” value rises from -0.107 to 0.22.

Compared with “HMTPTPQQNNILVGQTGTTLTRLAPMGKVRVGEVTAEAKTIDGYINPRQSVEVIGFENTVVIVRAV”, “HMTPVIINESGGDQDTRIEGLNDNNLLYVDASTDRVGVGVATPTQKLDVNGDVAISGGSLYLSQ” is lower in “soluble fraction (log2)” value: 0.22 for the first, -0.0183 for the second.

“HMTPVKAPLPGVVTKINVSVGQQVKKGENVLVLEAMKMENNIAAEADGTVSGIAVKAGDSVLEGAVLLTI” and “HMTPVTYELTVQSGAGQRIDKYLSEQLADLTRSYLQKLLKDGGVTVNGKTVKSNYKLSENDQIFLEVPDA” are within 0.2 log units of each other in “soluble fraction (log2)” value: -0.0107 for the first, 0.0962 for the second.

“HMTPVYLNARQKQILAFLKREEPAKVGDIAHALKTISINTLKKDLLYLRQKNLIESHGVLKGTIYTVK” and “HMTQEFIVPKVTGYTVEDAMNLSGVKDVFEITVDSTEKSDQPAGIILFQDPKDGSSRKSDLVIHVVVSAGS” are within 0.2 log units of each other in “soluble fraction (log2)” value: 0.209 for the first, 0.0901 for the second.

First: HMTQEQKQQISDQLRAYVEQKGSGNKAAASMNGVSSATISKVLAGKWETISEDMWRSIAAQTGH
Second: HMTQFSLTTEEINVLKKSYSEFTDSDKELFNKILEKYNKFKNESSNDIAFEAKILEKLQEIENFYE
The “soluble fraction (log2)” value of the first is higher: -0.156 for the first, -1.45 for the second.

Going from “HMTQMSVLFSELEAKDAATIADKLRERNIPYELSNNGSTILIPQEVLHDTRLSLASEGLPES” to “HMTQPAEINRLVEQMGSSDYKSRQEAYERLHQMGPGILDLIYPYRNHADPEIQTRVRELILSYRW”, the “soluble fraction (log2)” value falls from 0.263 to -0.547.

Compared with “HMTQQNRDELYRRMIDAGWDQLVRNGIRSLRVEQVAAAVGIAKGTFYHFFDSKDDFIYAMLMENRQ”, “HMTQSPLHWSHRPIDLSELLTYLDRDGAFVYASGHKAPFTEVVRGFEHLLNIRLGDPRDVKRSVLQR” is higher in “soluble fraction (log2)” value: -1.03 for the first, -0.282 for the second.

Going from “HMTQTGEVIRWDAERGFGFIATADGRRHVFFHVRDFRGGAAPGVGLRVGFEEIQVGGKGPRAMDVRPL” to “HMTRDGMTKEAFDSLLEDIMNILLDNGLKATTMGSIAKSLKMSKRTLYEIFSSKSQMVEEAIIASHTKMM”, the “soluble fraction (log2)” value rises from -0.491 to -0.00738.

Going from “HMTREAILDTAEELLQRRGYNAFSYHHIAVQLGIRNAAIHYHFPAKEDLGIELVSRFRIRLAE” to “HMTRLSSREAQVISLVRDGMTNQQIAERLELSPLTIKNHVQNILRKLDVSNRAQAVAKAVKARLI”, the “soluble fraction (log2)” value rises from -0.238 to 0.00472.

Compared with “HMTRRGPLTEGDRVQVRDPKGRFHQVILVRGGRFQSNRGGFNHDDVIGRPDGQVIITDEGRQFQIL”, “HMTRYEQLAAQIRQQIEDNIWQSGDRLPSLRDTVKQSGLSLMTVLQSYQLLESQGWITARPQSGYYVAHR” is lower in “soluble fraction (log2)” value: 0.0981 for the first, -0.169 for the second.

Compared with “HMTSGTLTLTQDTPVYTEPNKDGGVAYVQPQGDIQWDKYIFANGDNWYSFVQKNRDQEVRFYIAYSDVG”, “HMTSHSFVITEEVGQRLDRFISDQLDTVSRTMIQKHIRSGAVVVNGKQVKSNYLLVLNDRINIALK” is lower in “soluble fraction (log2)” value: -0.623 for the first, -1.22 for the second.

First: HMTSISMDEKVVLGWHQVTTGAANSGMDKVVSNTSGLNVISPTWFKLSDNKGNYISIASKDYVDAAHKKGL
Second: HMTSKTLSADGGENTRLDKFLSNHLPEISRTKIQKMINDGLVYVNQNYAKASLVLDGTELISYTIPD
The “soluble fraction (log2)” value of the first is lower: -0.317 for the first, 0.263 for the second.

Going from “HMTSLTDDELSVVMLVREREISFDEITSETGFDAARLNSVLTMLKIKGIIDETTGKHYRISGGA” to “HMTSLVRTSNLDGFEPLARSIGVDPVMELMRFGIPPDALIRENMFISFIGFIRLLEHTALAG”, the “soluble fraction (log2)” value rises from -0.492 to 0.206.

First: HMTSMYYLNKAVKEGNAKAIRQLLSAGININVRKRETSTPLDFAIKYKQTEIADLLRKHGGKTAEELKAEE
Second: HMTSNEKARNAASAERRADIVAAARELYEEQGLSKTSVQDITNRMGVARSLFYHYFPDKEAVTSAVLDDYV
The “soluble fraction (log2)” value of the first is higher: 0.0997 for the first, -0.102 for the second.

First: HMTSPELIELGERIRKRRQEMNLSQEALAEKAGISINTVSRVEGGQTAMSIEIFRKMIEILETDANGL
Second: HMTSRIHDYWTSPGQPGYAKIGWGTAGDFRRAKALIGEKIAANSPEDMRYLNQIIAQWHFDALGYWPGDH
The “soluble fraction (log2)” value of the first is higher: -0.804 for the first, -1.08 for the second.

First: HMTSRLLTPRQRYVFDTAMKEGFYDVPRRITLTELASVLDVAKSTLSAQLHRIESTVHHAYADDIRRRS
Second: HMTSSQLNIEELERRMMMHLEQNGFITRSIYTNLTGRLKWKATEDLKIFVEKGLIRKMGRGNQMYYVKVE
The “soluble fraction (log2)” value of the first is higher: 0.0724 for the first, -0.895 for the second.

Going from “HMTSSQRDSILEFLKTRKDHPTADVVYMNVRKSFPNISLGTVYRNLTLLSDIGQIAKIRVGDGVDHFDADT” to “HMTSSSGTITADWLNVRSGAGTNFSRLGSIAGGTRLTVISVHGEWYKITASFEGEIRTGYVHSQYVQMDGE”, the “soluble fraction (log2)” value falls from -0.073 to -1.59.

Compared with “HMTSTEQQIEQFIGTLVSLGGSAGNQRLLEALGWQDSIYQRVKQQLIDDGRIRPGRGRGGSVVLAE”, “HMTSVAGIERFLASGAIKGMGAATAKLIVEHFGADTLNMLDMYPERLTEIKGIGPKKATAIIEGYRELS” is lower in “soluble fraction (log2)” value: -0.302 for the first, -0.595 for the second.

First: HMTSVMAWRLITPIPQHGIIRSSQVQLQKHAPNSLKFLDVDSSPVGKQVKHGIAAGHWLSKDDFTE
Second: HMTTAASIGRLVRDARKQRGLTQHELASLLSTSQSAIHRIESGNQNLSLEMINRIAQALESPLIVPGG
The “soluble fraction (log2)” value of the first is higher: ≥ 0.43 for the first, -0.343 for the second.

First: HMTTIRQQAEVPLSAAGRRFDQALAEMFPAYSRSRLSGWIKAGAATLDGAPAAPRQLLRGGERVELDVELE
Second: HMTTKGGLVRDTVLNEFRDSEFTRREVELVLNGVASERTIRGALSEMVERGELTQVNFGISTRYRLNQ
The “soluble fraction (log2)” value of the first is higher: -0.316 for the first, -0.536 for the second.

Compared with “HMTTLEGIEKYLGSGMIRGIGPAYAGRLTKVFGEAVFDVIEQSPERLREVEGIGPKRVSRIVSGWAEQ”, “HMTTLLNHLKGTRLEAGLSQQALARLAGISRQAYSALESGSSNPSTEVALRLARALKTSVDHLFSLPE” is higher in “soluble fraction (log2)” value: -0.707 for the first, 0.0864 for the second.

“HMTTQVPYTAKLININGGSVVNFRKEPGMNTTIIRTYPVGTEVTVLETGVNWSKVEIDGVTGYVSSYFL” and “HMTTRLLTPRQRQVFDIAIREGFYDSPRRISLTELADLLGVAKSTLSVQLQRVESTIVHTFSEEIRRRS” are within 0.2 log units of each other in “soluble fraction (log2)” value: -0.00711 for the first, -0.176 for the second.

Going from “HMTTRQREALLDYLSRHPDQPLTVREIAAGVEPDGVSLSAVYRNLAELEAAGLIRRESRPGSREAVVQYV” to “HMTTTTTYITNTDAVNIRQQATTSSTSLGKLAKNTILSVKKKSGDWYQITYKKQTAYIHASLVDKKTAKVT”, the “soluble fraction (log2)” value rises from -0.192 to ≥ 0.43.

First: HMTTVDYDALRAAILQQVVSEDTTPALTTENTEIKYKFKFGLDTWVDLDGGKIAPAVSAKSYEIQISFKG
Second: HMTTYVNGSWSGWNGSTVVKLTDGSVWRQAEYHYEYHYAYRPQARLERDELFVEGMSRGVRV
The “soluble fraction (log2)” value of the first is higher: 0.12 for the first, -0.754 for the second.

Going from “HMTVADMQQKANVKRRNSNSHEAILDATVKLLGSSGYIDFSIEKVASQAGVGKQTIYRWWPSRADLVLEVW” to “HMTVAEVEDRMEASRVRQALDAVGEPHRTTIALAYFTGLTHTEIAQRMGVPLGTVKSRIRDGMAKMRTHLG”, the “soluble fraction (log2)” value falls from 0.223 to -0.172.

Compared with “HMTVDHDERRSMILEAFMRLAAREGLHAVSLRGVAAEAGISLRLVQYYFETKARLMQSGLTALET”, “HMTVKKLIINEDNSGRRIDNYLLSIFNSVPRSKIYNIIRKGEVRVNSSRIKPSYRLEEGDQVRIPPNLDYT” is higher in “soluble fraction (log2)” value: -0.501 for the first, -0.0871 for the second.

Going from “HMTVKRNILQELLKTAFKHPEDFRPSKTFYGETGIGQKRFWALYYGHKAVTQKEYYAVADYLG” to “HMTVLDYNENVLSKVMNAAEINDSDKEAFIAFAKDYNSDDNLYLKKEELETAAGAWNARNVE”, the “soluble fraction (log2)” value falls from 0.202 to -0.552.

First: HMTVLTDEIKVILISYIKENDFKKKHGNRKMMMTAQDMYDELVEKGYKISYPTVTQYVQKYRENETT
Second: HMTVMTGSQRRKKILELMRDAKEPLSGGALGKETGVSRHVVVQDIALLRTQGYPIVATARGYIINE
The “soluble fraction (log2)” value of the first is lower: -0.0952 for the first, ≥ 0.43 for the second.

“HMTVRLSVSADGKFFWNESQVSEEELFPRLQAEAAKEPQPDLHIRGDKNVRYEFVAQAMAAAQRAGVRKI” and “HMTVSADQTAADAVIKLINAIGTVSENSGSAISAARSGYDALTDTQKKLVTNYNKLTQAEQVFSSLPS” are within 0.2 log units of each other in “soluble fraction (log2)” value: -0.423 for the first, -0.315 for the second.

First: HMTVSGNIAGDYKDYLPQKTDVINGMTVTYRMVDDAVYLASWKHAGQNHVFLFNDPVSVERAREMI
Second: HMTVSIDSLFDKFEDLQEQGLGDKTEEGQELRGLIRAFIEQEHLSVRITRSTSNQELLDMIEEAMQ
The “soluble fraction (log2)” value of the first is lower: -0.965 for the first, -0.551 for the second.

First: HMTVSRRYTENEMETALKAYLATHNFISRRDMQQEFALTIYSARKWLNHFVDVGLIERIGLKNAPIYKL
Second: HMTVTKYGKKILEIVSSSRSHMTAEEIFDALRQTYPTVVLATVYNNLNRLWQDDLIRKVSVEGMPDRYD
The “soluble fraction (log2)” value of the first is higher: 0.22 for the first, -0.0435 for the second.

Going from “HMTVVPNIVNQPEAAGTNLLISSNLKPGNRAVQYSDTVKAGDIISQSPEPGAQATLGGKVDYVISQGPAPT” to “HMTWIAEIELRLMGNGAVTGAKIVKSTDLKDVDAAIYRAALEASPYPAPESGIGGRFTIKLKY”, the “soluble fraction (log2)” value falls from 0.22 to 0.015.

Compared with “HMTYLIKFDENGRRSDTYVAEEKTQEQVTELLEKGFVLITEEDYQLLVGNVDGKEYIRNADGTYSEYT”, “HMTYMWTTDGVNLRSEPNTDSAVVTVLGVGTQVRMIGEEDGWVKVSFNDQEGYIRADFLTTE” is higher in “soluble fraction (log2)” value: -0.894 for the first, -0.476 for the second.

Compared with “HMTYSAFITARNKRIAEEYSVLLDSLNISNNVIYRLGSWVVEVNVSDHSRAIDEIYSYERSGRIDKV”, “HMTYYEGYYRKNQKGFGFVIVDGRDEDIYIDAKNMNGALNNDLVVVEELKGQNGKKTEGRVVKVLKKE” is higher in “soluble fraction (log2)” value: -0.534 for the first, -0.284 for the second.

Compared with “HMVADLSGVGDKDIIVDQFIYHEVLPKETIYSIVKSFNVTSEDLNKNNPFLRANGLRIGQVIRIPLKI”, “HMVAEPTYGRTTDVLNIRSGPSTDDERIGQLSRGAVVTILEEKDGWYRLQRGYISADYVTQISAEEASNS” is lower in “soluble fraction (log2)” value: -0.224 for the first, -0.546 for the second.

Compared with “HMVAEPVYGKVTEGPLNVRSAPSTDSEKVDSFSTGKVLTILETLDGWYKVEEGYVSADYVTIIDAAEAASS”, “HMVAGHLSEKKGYYYAVLNYKDYTGKRKSKWVSTGLPVKGNKRRAEKILADIKRDFVPEEPKR” is higher in “soluble fraction (log2)” value: -0.538 for the first, -0.0527 for the second.

First: HMVAGQDPVKRQQILDGAKRVFLGVGFDAASMNDITREAGVSKGTIYVYFGSKEELFGALIDR
Second: HMVAMLDASYRGVMQTISTLLAQGNTERAYDEAVNARGQMSKQQWNNLANLIWERTGQKIDSGVSYK
The “soluble fraction (log2)” value of the first is lower: -0.807 for the first, -0.00781 for the second.

For “HMVDEAQSLERNVLLTVLSRIGRDSRVVLTHDIAQRDNLRVGRHDGVVAVVDRLKGHPLFAHVTL”, the “soluble fraction (log2)” value was -0.0346.

From the domain aggregation screens of Martell et al. (2025)
